# Patent US20250002593A1 (INMAGENE PTE, published 2025)
# Read-outs that look alike come from different tables or passages of the source.
# T1: Recombinant hIL-36R protein (Acrobio, Cat #IL2-H52H6) (human, UniProt Q9HB29 20-335)
# T1 construct: Bought soluble protein; also called recombinant human IL-36R protein
# T1 sequence: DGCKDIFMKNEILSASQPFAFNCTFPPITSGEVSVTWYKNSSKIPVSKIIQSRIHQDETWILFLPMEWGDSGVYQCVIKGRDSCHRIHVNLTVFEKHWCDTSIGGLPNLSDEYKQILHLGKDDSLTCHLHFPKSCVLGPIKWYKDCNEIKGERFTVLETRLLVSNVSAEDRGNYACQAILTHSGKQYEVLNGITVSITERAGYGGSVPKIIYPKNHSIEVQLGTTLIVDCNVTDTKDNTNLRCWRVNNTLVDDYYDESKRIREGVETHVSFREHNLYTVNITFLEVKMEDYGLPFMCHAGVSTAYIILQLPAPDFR
# T2: membrane hIL-36R (human, UniProt Q9HB29 20-575)
# T2 sequence: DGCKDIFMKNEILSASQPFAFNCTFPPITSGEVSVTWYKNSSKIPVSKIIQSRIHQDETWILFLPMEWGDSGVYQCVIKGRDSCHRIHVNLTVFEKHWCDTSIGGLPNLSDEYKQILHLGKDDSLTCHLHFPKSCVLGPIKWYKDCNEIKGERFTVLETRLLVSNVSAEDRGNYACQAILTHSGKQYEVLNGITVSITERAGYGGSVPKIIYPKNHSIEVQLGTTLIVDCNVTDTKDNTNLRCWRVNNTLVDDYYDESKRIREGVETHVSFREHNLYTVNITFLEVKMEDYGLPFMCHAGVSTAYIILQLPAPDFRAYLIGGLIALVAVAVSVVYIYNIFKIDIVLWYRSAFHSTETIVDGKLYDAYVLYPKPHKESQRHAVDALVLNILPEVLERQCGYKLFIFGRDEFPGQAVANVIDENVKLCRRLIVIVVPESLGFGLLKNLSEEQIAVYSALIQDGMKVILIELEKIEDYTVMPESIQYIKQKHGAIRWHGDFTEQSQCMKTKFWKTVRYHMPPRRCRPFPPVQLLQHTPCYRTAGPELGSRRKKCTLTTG
# Experiments:
# [1] = biological target: T1, Recombinant hIL-36R protein (Acrobio, …); assay: BLI (Gator)
# Method: (§1) Antibodies was immobilized onto Protein A biosensor after balance. A baseline was detected for 60 seconds. And then antibody-antigen association was detected for 180 seconds to get the Kon factor data. Followed by dissociation in kinetic buffer for 180 seconds to get the Koff factor data. The regeneration of biosensors was in buffer 10 mM glycine, pH2.0. All the kinetics data were collected at 30° C. Data were acquired with Gator Bioanalysis System.
# [2] = biological target: T2, membrane hIL-36R; assay: cell-based or functional assay
# [3] = biological target: T1, Recombinant hIL-36R protein (Acrobio, …); assay: BLI as in Example 2, antibody on Protein A sensor, hIL-36R analyte
# Method: as §1
# [4] = biological target: T2, membrane hIL-36R; assay: cell-based or functional assay; remark: listed apart in the source
# [5] = biological target: T1, Recombinant hIL-36R protein (Acrobio, …); assay: BLI (Gator), antibody on Protein A sensor, hIL-36R analyte
# Method: as §1
# [6] = biological target: T1, Recombinant hIL-36R protein (Acrobio, …); assay: BLI (Gator), antibody on Protein A sensor, hIL-36R analyte; stands under the head kon(1/s), read as koff from KD = koff/kon
# Method: as §1
# [7] = biological target: T1, Recombinant hIL-36R protein (Acrobio, …); assay: BLI (Gator), antibody on Protein A sensor, hIL-36R analyte; stands under the head koff(1/Ms), read as kon from KD = koff/kon
# Method: as §1
Kd [1],kon [1],Kd [5],koff [6],kon [7],other results,Binder
< 0.1 nM,39800 M⁻¹ s⁻¹,,,,"IC50, IL-36R reporter assay: inhibition of ligand induced luminescence in Jurkat-IL36R-IL1Racp-NFkB-luc cells [2]: 0.0228 µg/mL","5F7-2a6 (antibody, human IgG4 S228P, kappa, V domains shown) VH: EVQLVESGGGLVKPGGSLRLSCAASGFDFTDYYMNWVRQAPGKGLEWVALIRNKAAGYTIYYSAPVKGRFTISRDDSKSTLYLQMNSLKTEDTAVYYCVRDMTIYDGYYVDYALDYWGQGTLVTVSS VL: DIVMTQSPSSVSASVGDRVTITCRASRNINIWLSWYQQKPGKAPKLFIYKASNLHTGVPSRFSGSGSGTDFTLTISSLQPEDFATYYCLQSQSYPLTFGQGTKLEIKR"
< 0.1 nM,32500 M⁻¹ s⁻¹,,,,"IC50, IL-36R reporter assay: inhibition of ligand induced luminescence in Jurkat-IL36R-IL1Racp-NFkB-luc cells [2]: 0.0195 µg/mL","5F7-2a1 (antibody, human IgG4 S228P, kappa, V domains shown) VH: EVQLVESGGGLVKPGGSLRLSCAASGFDFTDYYMHWVRQAPGKGLEWVALIRNKAAGYTIYYSAPVKGRFTISRDDSKSTLYLQMNSLKTEDTAVYYCVRDMTIYDGYYVDYALDYWGQGTLVTVSS VL: DIVMTQSPSSVSASVGDRVTITCRASRNINIWLSWYQQKPGKAPKLFIYKASNLHTGVPSRFSGSGSGTDFTLTISSLQPEDFATYYCLQSQSYPLTFGQGTKLEIKR"
2060 nM,203 M⁻¹ s⁻¹,,,,koff [1]: 0.000418 s⁻¹,"5F7-2c4 (antibody, human IgG4 S228P, kappa, V domains shown) VH: EVQLVESGGGLVKPGGSLRLSCAASGFAFTDYYLRWVRQAPGKGLEWVALIRNKAAGYTIYYSAPVKGRFTISRDDSKSTLYLQMNSLKTEDTAVYYCVRDMTIYDGYYVDYALDYWGQGTLVTVSS VL: DIVMTQSPSSVSASVGDRVTITCRASRNINIWLSWYQQKPGKAPKLFIYKASNLHTGVPSRFSGSGSGTDFTLTISSLQPEDFATYYCLQSQSYPLTFGQGTKLEIKR"
2.46 nM,35900 M⁻¹ s⁻¹,,,,koff [1]: 8.83e-05 s⁻¹,"5F7-2d3 (antibody, human IgG4 S228P, kappa, V domains shown) VH: EVQLVESGGGLVKPGGSLRLSCAASGFNFTDYYMNWVRQAPGKGLEWVALIRNKAAGYTIYYSAPVKGRFTISRDDSKSTLYLQMNSLKTEDTAVYYCVRDMTIYDGYYVDYALDYWGQGTLVTVSS VL: DIVMTQSPSSVSASVGDRVTITCRASRNINIWLSWYQQKPGKAPKLFIYKASNLHTGVPSRFSGSGSGTDFTLTISSLQPEDFATYYCLQSQSYPLTFGQGTKLEIKR"
0.638 nM,28900 M⁻¹ s⁻¹,,,,koff [1]: 1.84e-05 s⁻¹,"5F7-2g10 (antibody, human IgG4 S228P, kappa, V domains shown) VH: EVQLVESGGGLVKPGGSLRLSCAASGFAFTDYYLSWVRQAPGKGLEWVALIRNKAAGYTIYYSAPVKGRFTISRDDSKSTLYLQMNSLKTEDTAVYYCVRDMTIYDGYYVDYALDYWGQGTLVTVSS VL: DIVMTQSPSSVSASVGDRVTITCRASRNINIWLSWYQQKPGKAPKLFIYKASNLHTGVPSRFSGSGSGTDFTLTISSLQPEDFATYYCLQSQSYPLTFGQGTKLEIKR"
< 0.1 nM,41000 M⁻¹ s⁻¹,,,,,"5F7-2h1 (antibody, human IgG4 S228P, kappa, V domains shown) VH: EVQLVESGGGLVKPGGSLRLSCAASGYAFTDYYMNWVRQAPGKGLEWVALIRNKAAGYTIYYSAPVKGRFTISRDDSKSTLYLQMNSLKTEDTAVYYCVRDMTIYDGYYVDYALDYWGQGTLVTVSS VL: DIVMTQSPSSVSASVGDRVTITCRASRNINIWLSWYQQKPGKAPKLFIYKASNLHTGVPSRFSGSGSGTDFTLTISSLQPEDFATYYCLQSQSYPLTFGQGTKLEIKR"
,,,,,"Kd [3]: 6.86 nM; koff [3]: 0.000233 s⁻¹; kon [3]: 34000 M⁻¹ s⁻¹; IC50, IL-36R reporter assay: inhibition of ligand induced luminescence in Jurkat-IL36R-IL1Racp-NFkB-luc cells [4]: 0.086 µg/mL","5F7-hu-2 (antibody, V domains shown, Humanized 5F7; also called humanized 5F7) VH: QVQLQESGGGLVKPGGSLRLSCAASGFAFTDYYMNWIRQAPGKGLEWVSLIRNKAAGYTIYYADSVKGRFTISRDNAKSSLYLQMNSLRAEDTAVYYCVRDMTIYDGYYVDYALDYWGQGTLVTVSS VL: EIVMTQSPATLSVSPGERATLSCRASQNINIWLSWYQQKPGQAPRLFIYKASNLHTGVPARFSGSGSGTEFTLTISSLQSEDFAVYYCLQSQSYPLTFGQGTKLEIK"
,,,,,"Kd [3]: 6.28 nM; koff [3]: 0.000294 s⁻¹; kon [3]: 46700 M⁻¹ s⁻¹; IC50, IL-36R reporter assay: inhibition of ligand induced luminescence in Jurkat-IL36R-IL1Racp-NFkB-luc cells [4]: 0.0781 µg/mL","5F7-hu-5 (antibody, V domains shown, Humanized 5F7; also called humanized 5F7) VH: EVQLVESGGGLVKPGGSLRLSCAASGFAFTDYYMNWVRQAPGKGLEWVALIRNKAAGYTIYYSAPVKGRFTISRDDSKSTLYLQMNSLKTEDTAVYYCVRDMTIYDGYYVDYALDYWGQGTLVTVSS VL: DIVMTQSPSSVSASVGDRVTITCRASQNINIWLSWYQQKPGKAPKLFIYKASNLHTGVPSRFSGSGSGTDFTLTISSLQPEDFATYYCLQSQSYPLTFGQGTKLEIK"
,,4.03 nM,0.000321 s⁻¹,79800 M⁻¹ s⁻¹,,"10D12 (antibody, V domains shown, Mouse variable regions, recombinantly expressed) VH: QVQLQQPGTELVKPGASVKLSCKASGYTFTRYWMHWVRQRPGQGLEWIGNINPNIGRANYNEKFKNKATLTVDKSSSTAYMQLSSLTSEDSAVYYCARPGETTDYWGQGTTLTVSS VL: not shown"
,,0.901 nM,0.000137 s⁻¹,152000 M⁻¹ s⁻¹,,"10F6 (antibody, V domains shown, Mouse variable regions, recombinantly expressed) VH: QVQLQQSGAELVKPGASVRLSCKASGYTFTEFTIHWVKQRSGQGLEWIGWFYPGSDFIKYNEKFKDKATLTADKSSNTVYMELLRLTSEDSAVYFCARHEDRLSDYSYEWYFDVWGAGTAVTVSS VL: DIQMTQSPASLSASVGETVTITCRASENIDSYLAWYQQKQGKSPQLLVYGATLLADGVPSRFSGSGSGTQYSLKINSLQSEDVAEYFCQHYYSIPLTFGAGTKLELK"
,,0.00631 nM,5.79e-07 s⁻¹,91700 M⁻¹ s⁻¹,,"9H11 (antibody, V domains shown, Mouse variable regions, recombinantly expressed) VH: QVQLQQSGPELVKPGASVKISCKASGYAFSHSWMNWVKQRPGKGLEWIGWIHLGDGDTYYNGKFKGKATLTADKSSSTAYMQLSSLTSEDSAVYFCARSDGNYVPYAMDYWGQGTSVTVSS VL: DIVITQTTSSLSASLGDRVTISCRASQDISNYLSWYQQKPDGTVKLLIYYTSRLHSGVPSRFSGSGSGTDYSLTISSLEQEDIATYFCQQDSEHPWTFGGGTELDVR"
,,13.7 nM,0.000872 s⁻¹,63800 M⁻¹ s⁻¹,,"1C11 (antibody, V domains shown, Mouse variable regions, recombinantly expressed) VH: EVQVQQSGTELVKPGASVKLSCKASGYTFTNYWLHWVKQRPGQGLEWIGNINPSNGGTNYNEKFKTKATLTVDKSSSTAYMQLSSLTSEDSAVYYCARYSTGFAYWGQGTLVTVSA VL: DIVLTQTTASLAVSLGQRATISCRASESVDTYGASFMHWYQQKPGQPPKLLIYRASNLESGIPARFSGSGSRTDFTLTVNPVEADDVATYYCQQSNEDPRTFGGGTKLEIK"
,,0.536 nM,4.01e-05 s⁻¹,74900 M⁻¹ s⁻¹,,"1A21 (antibody, V domains shown, Mouse variable regions, recombinantly expressed) VH: EVQLQQSGPELVKPGDSVKISCKASGYSFTGYFMNWVMQSHGKSLEWIGRINPYNGDTFYNQKFKGKATLTVDKSSSTAHMELRSLTSEDSAVYYCAGLGHWYFDVWGTGTTVTVSS VL: DIVMTQSTLSLPVSLGDQASISCRSSQSIVHSNGNTYLEWYLQKPGQSPKLLIYKVSNRFSGVPDRFSGSGSGTDFTLKISRVEAEDLGVYYCFQGSHVPWTFGGGTKLEIK"
,,0.597 nM,4.37e-05 s⁻¹,73200 M⁻¹ s⁻¹,,"1J3 (antibody, V domains shown, Mouse variable regions, recombinantly expressed) VH: QVQLEQSGGDLVKPGGSLKLSCAASGFTFSSYGMSWVRQTPDKRLEWVATISSYGSYTSYPDTVKGRFTISRDNAKNTLYLQMSSLKSEDTAMYYCARPDYYVSTGFDYWGQGTTLTVSS VL: DIVITQSTATLSVTPGDRVSLSCRASQSISDYLHWYQQKSHESPRLLIKYASQSISGIPSRFSGSGSGSDFTLSINSVEPEDVGVYYCQNGHSFPFTFGSGTKLEIK"
,,10 nM,0.000795 s⁻¹,79400 M⁻¹ s⁻¹,,"9C12 (antibody, V domains shown, Mouse variable regions, recombinantly expressed) VH: EVQLQQSGPELVKPGASVKMSCKASGYTFTDYHMNWVKRSPGKSLEWIGRINPDYGDARYDQKFKGKATLTVDKSLSTAYMQLNRLTYEDSAVYYCARDGYYVFDYWGQGSTLTVSS VL: DIVMTQAAFSNPVSLGTSASISCRSSKSLLHSDGITYLSWYLQRPGQSPQLLIYRMSNLVSGVPDRFSGSGSGTDFTLRISRVEAEDVGVYYCAQTLEFPLTFGAGTKLELK"
